doi:10.1101/2024.02.01.578502 (bioRxiv, 2024)
Each block holds one molecule with its values, some of them ahead of it.

Experiments:
Experiment in all cases: cryo-EM structure
[1] = biological target: dihydrolipoyl transacetylase (E2) (porcine (endogenous in porcine heart mitochondria))
[2] = biological target: the molecule itself
[3] = biological target: dihydrolipoamide dehydrogenase-binding protein (E3BP) (porcine (endogenous in porcine heart mitochondria))

stoichiometry N [1]: 60
Molecule: dihydrolipoyl transacetylase (E2) (enzyme)

N, LD per E1 heterotetramer [1]: 1 | N, PSBD per E1 heterotetramer [1]: 1 | percent of E1 heterotetramers with additional density (LD) [1]: 82% | ratio of E1 with LD bound to E1 without LD bound [1]: 4.5 times
Molecule: pyruvate dehydrogenase (E1) α2β2 heterotetramer (from UniProt P29804 31-390) (complex)

stoichiometry N [3]: 1
B1: dihydrolipoyl dehydrogenase (E3) dimer (enzyme, UniProt P09623 36-509, looked up)
chain: ADQPIDADVTVIGSGPGGYVAAIKAAQLGFKTVCIEKNETLGGTCLNVGCIPSKALLNNSHYYHMAHGKDFASRGIEMSEVRLNLEKMMEQKSNAVKALTGGIAHLFKQNKVVRVNGYGKITGKNQVTATKADGSTEVINTKNILIATGSEVTPFPGITIDEDTVVSSTGALSLKKVPEKMVVIGAGVIGVELGSVWQRLGADVTAVELLGHVGGIGIDMEVSKNFQRILQKQGFKFKLNTKVIGATKKSDGNIDVSIEAASGGKAEVITCDVLLVCIGRRPFTQNLGLEELGIELDPRGRIPVNTRFQTKIPNIYAIGDVVAGPMLAHKAEDEGIICVEGMAGGAVHIDYNCVPSVIYTHPEVAWVGKSEEQLKEEGIEYKVGKFPFAANSRAKTNADTDGMVKILGQKSTDRVLGAHIIGPGAGEMINEAALALEYGASCEDIARVCHAHPTLSEAFREANLAASFGKAINF
stoichiometry N [2]: 2
